For the assay, the target named is Recombinant human IL-1β (BioLegend 579404) (human, UniProt P01584 117-269). In words: cell-based or functional assay.

Experimental findings from patent US20260242419A1, “A CYCLIC PEPTIDE FOR TRAPPING INTERLEUKIN-1 BETA” (Merck Sharp & Dohme LLC, priority 2023, published 2026) are described below.

Starred links: 1 amine or outer side, 2 acyl side, 3 side chain; linkers in the order of their positions; H or OH if unused. Non-standard residues stand in square brackets, D forms with d. PyrimAla4AcPip = (2S)-3-[2-(4-acetylpiperazin-1-yl)pyrimidin-5-yl]-2-amino-propanoic acid, CC(=O)N1CCN(c2ncc(C[C@H](N[*:1])C(=O)[*:2])cn2)CC1; 3AzaPhe4AcPip = (2S)-3-[6-(4-acetylpiperazin-1-yl)-3-pyridyl]-2-amino-propanoic acid, CC(=O)N1CCN(c2ccc(C[C@H](N[*:1])C(=O)[*:2])cn2)CC1; TyrEtNAc = (2S)-3-[4-(2-acetamidoethoxy)phenyl]-2-amino-propanoic acid, CC(=O)NCCOc1ccc(C[C@H](N[*:1])C(=O)[*:2])cc1; dPro(4R-(4-pyridylmethyl)) = O=C(O)[C@H]1C[C@@H](Cc2ccncc2)CN1; Trp(βS-Me,4-F) = C[C@@H](c1c[nH]c2cccc(F)c12)[C@H](N)C(=O)O; Bip(4'-COOH) = N[C@@H](Cc1ccc(-c2ccc(C(=O)O)cc2)cc1)C(=O)O; Ala(1-bicyclo(1.1.1)pentyl) = N[C@@H](CC12CC(C1)C2)C(=O)O; dPro(4R-Bzl(4-F)) = O=C(O)[C@H]1C[C@@H](Cc2ccc(F)cc2)CN1; Ala(pyrimidin-5-yl) = N[C@@H](Cc1cncnc1)C(=O)O; Phe(4-COOH) = N[C@@H](Cc1ccc(C(=O)O)cc1)C(=O)O; Pro(cis-4-F) = O=C(O)[C@@H]1C[C@H](F)CN1; 4Pal = N[C@@H](Cc1ccncc1)C(=O)O; Dab = NCC[C@H](N)C(=O)O; Dap = NC[C@H](N)C(=O)O; Aib = CC(C)(N)C(=O)O

With cyclo([Bip(4'-COOH)][4Pal][Phe(4-COOH)]G[Pro(cis-4-F)][Trp(βS-Me,4-F)][Aib]SW[Aib][Ala(pyrimidin-5-yl)]Q[Dab]G[dPro(4R-(4-pyridylmethyl))]) [SEQ ID NO: 42], the “MRC5 IC50” value turned out to be 0.021 nM.

B1: SEQ ID NO: 41 (peptide)
peptide: cyclo([Bip(4'-COOH)][4Pal][Phe(4-COOH)]G[Pro(cis-4-F)][Trp(βS-Me,4-F)][Aib]AW[Aib][Ala(pyrimidin-5-yl)]Q[Dab]G[dPro(4R-(4-pyridylmethyl))])
SMILES: C[C@@H]1NC(=O)C(C)(C)NC(=O)[C@H]([C@@H](C)c2c[nH]c3cccc(F)c23)NC(=O)[C@@H]2C[C@H](F)CN2C(=O)CNC(=O)[C@H](Cc2ccc(C(=O)O)cc2)NC(=O)[C@H](Cc2ccncc2)NC(=O)[C@H](Cc2ccc(-c3ccc(C(=O)O)cc3)cc2)NC(=O)[C@H]2C[C@@H](Cc3ccncc3)CN2C(=O)CNC(=O)[C@H](CCN)NC(=O)[C@H](CCC(N)=O)NC(=O)[C@H](Cc2cncnc2)NC(=O)C(C)(C)NC(=O)[C@H](Cc2c[nH]c3ccccc23)NC1=O
B1: the “MRC5 IC50” value was 0.029 nM.

B2: SEQ ID NO: 40 (peptide)
peptide: cyclo([PyrimAla4AcPip][4Pal][Phe(4-COOH)]G[Pro(cis-4-F)][Trp(βS-Me,4-F)][Aib]EW[Aib][Ala(pyrimidin-5-yl)]Q[Dab]G[dPro(4R-Bzl(4-F))])
SMILES: CC(=O)N1CCN(c2ncc(C[C@@H]3NC(=O)[C@H]4C[C@@H](Cc5ccc(F)cc5)CN4C(=O)CNC(=O)[C@H](CCN)NC(=O)[C@H](CCC(N)=O)NC(=O)[C@H](Cc4cncnc4)NC(=O)C(C)(C)NC(=O)[C@H](Cc4c[nH]c5ccccc45)NC(=O)[C@H](CCC(=O)O)NC(=O)C(C)(C)NC(=O)[C@H]([C@@H](C)c4c[nH]c5cccc(F)c45)NC(=O)[C@@H]4C[C@H](F)CN4C(=O)CNC(=O)[C@H](Cc4ccc(C(=O)O)cc4)NC(=O)[C@H](Cc4ccncc4)NC3=O)cn2)CC1
On to B2, for which the “MRC5 IC50” value amounted to 0.048 nM.

In the case of cyclo([Bip(4'-COOH)][Ala(1-bicyclo(1.1.1)pentyl)][Phe(4-COOH)]G[Pro(cis-4-F)][Trp(βS-Me,4-F)][Aib]EW[Aib][4Pal]Q[Dap]G[dPro(4R-(4-pyridylmethyl))]) [SEQ ID NO: 48], the “MRC5 IC50” value turned out to be 0.027 nM.

As to cyclo([Bip(4'-COOH)][Ala(1-bicyclo(1.1.1)pentyl)][Phe(4-COOH)]G[Pro(cis-4-F)][Trp(βS-Me,4-F)][Aib]SW[Aib][Ala(pyrimidin-5-yl)]Q[Dab]G[dPro(4R-(4-pyridylmethyl))]) [SEQ ID NO: 44], the “MRC5 IC50” value was 0.021 nM.

B3: SEQ ID NO: 49 (peptide)
peptide: cyclo([TyrEtNAc][4Pal][Phe(4-COOH)]G[Pro(cis-4-F)][Trp(βS-Me,4-F)][Aib]EW[Aib][Ala(pyrimidin-5-yl)]Q[Dab]G[dPro(4R-(4-pyridylmethyl))])
SMILES: CC(=O)NCCOc1ccc(C[C@@H]2NC(=O)[C@H]3C[C@@H](Cc4ccncc4)CN3C(=O)CNC(=O)[C@H](CCN)NC(=O)[C@H](CCC(N)=O)NC(=O)[C@H](Cc3cncnc3)NC(=O)C(C)(C)NC(=O)[C@H](Cc3c[nH]c4ccccc34)NC(=O)[C@H](CCC(=O)O)NC(=O)C(C)(C)NC(=O)[C@H]([C@@H](C)c3c[nH]c4cccc(F)c34)NC(=O)[C@@H]3C[C@H](F)CN3C(=O)CNC(=O)[C@H](Cc3ccc(C(=O)O)cc3)NC(=O)[C@H](Cc3ccncc3)NC2=O)cc1
For the molecule B3, the “MRC5 IC50” value was 0.047 nM.

B4: SEQ ID NO: 45 (peptide)
peptide: cyclo([Bip(4'-COOH)][Ala(1-bicyclo(1.1.1)pentyl)][Phe(4-COOH)]G[Pro(cis-4-F)][Trp(βS-Me,4-F)][Aib]EW[Aib][4Pal]Q[Dab]G[dPro(4R-(4-pyridylmethyl))])
SMILES: C[C@@H](c1c[nH]c2cccc(F)c12)[C@@H]1NC(=O)[C@@H]2C[C@H](F)CN2C(=O)CNC(=O)[C@H](Cc2ccc(C(=O)O)cc2)NC(=O)[C@H](CC23CC(C2)C3)NC(=O)[C@H](Cc2ccc(-c3ccc(C(=O)O)cc3)cc2)NC(=O)[C@H]2C[C@@H](Cc3ccncc3)CN2C(=O)CNC(=O)[C@H](CCN)NC(=O)[C@H](CCC(N)=O)NC(=O)[C@H](Cc2ccncc2)NC(=O)C(C)(C)NC(=O)[C@H](Cc2c[nH]c3ccccc23)NC(=O)[C@H](CCC(=O)O)NC(=O)C(C)(C)NC1=O
Regarding B4, the “MRC5 IC50” value amounted to 0.027 nM.

B5: SEQ ID NO: 5 (peptide)
peptide: cyclo([Bip(4'-COOH)][4Pal][Phe(4-COOH)]G[Pro(cis-4-F)][Trp(βS-Me,4-F)][Aib]SW[Aib]SQ[Dab]G[dPro(4R-Bzl(4-F))])
SMILES: C[C@@H](c1c[nH]c2cccc(F)c12)[C@@H]1NC(=O)[C@@H]2C[C@H](F)CN2C(=O)CNC(=O)[C@H](Cc2ccc(C(=O)O)cc2)NC(=O)[C@H](Cc2ccncc2)NC(=O)[C@H](Cc2ccc(-c3ccc(C(=O)O)cc3)cc2)NC(=O)[C@H]2C[C@@H](Cc3ccc(F)cc3)CN2C(=O)CNC(=O)[C@H](CCN)NC(=O)[C@H](CCC(N)=O)NC(=O)[C@H](CO)NC(=O)C(C)(C)NC(=O)[C@H](Cc2c[nH]c3ccccc23)NC(=O)[C@H](CO)NC(=O)C(C)(C)NC1=O
Regarding B5, the “MRC5 IC50” value turned out to be 0.039 nM.

B6: SEQ ID NO: 39 (peptide)
peptide: cyclo([3AzaPhe4AcPip][4Pal][Phe(4-COOH)]G[Pro(cis-4-F)][Trp(βS-Me,4-F)][Aib]EW[Aib][Ala(pyrimidin-5-yl)]Q[Dab]G[dPro(4R-Bzl(4-F))])
SMILES: CC(=O)N1CCN(c2ccc(C[C@@H]3NC(=O)[C@H]4C[C@@H](Cc5ccc(F)cc5)CN4C(=O)CNC(=O)[C@H](CCN)NC(=O)[C@H](CCC(N)=O)NC(=O)[C@H](Cc4cncnc4)NC(=O)C(C)(C)NC(=O)[C@H](Cc4c[nH]c5ccccc45)NC(=O)[C@H](CCC(=O)O)NC(=O)C(C)(C)NC(=O)[C@H]([C@@H](C)c4c[nH]c5cccc(F)c45)NC(=O)[C@@H]4C[C@H](F)CN4C(=O)CNC(=O)[C@H](Cc4ccc(C(=O)O)cc4)NC(=O)[C@H](Cc4ccncc4)NC3=O)cn2)CC1
Consider B6, for which the “MRC5 IC50” value was 0.063 nM.

B7: SEQ ID NO: 46 (peptide)
peptide: cyclo([Bip(4'-COOH)][Ala(1-bicyclo(1.1.1)pentyl)][Phe(4-COOH)]G[Pro(cis-4-F)][Trp(βS-Me,4-F)][Aib]EW[Aib][Ala(pyrimidin-5-yl)]Q[Dap]G[dPro(4R-(4-pyridylmethyl))])
SMILES: C[C@@H](c1c[nH]c2cccc(F)c12)[C@@H]1NC(=O)[C@@H]2C[C@H](F)CN2C(=O)CNC(=O)[C@H](Cc2ccc(C(=O)O)cc2)NC(=O)[C@H](CC23CC(C2)C3)NC(=O)[C@H](Cc2ccc(-c3ccc(C(=O)O)cc3)cc2)NC(=O)[C@H]2C[C@@H](Cc3ccncc3)CN2C(=O)CNC(=O)[C@H](CN)NC(=O)[C@H](CCC(N)=O)NC(=O)[C@H](Cc2cncnc2)NC(=O)C(C)(C)NC(=O)[C@H](Cc2c[nH]c3ccccc23)NC(=O)[C@H](CCC(=O)O)NC(=O)C(C)(C)NC1=O
On to B7, for which the “MRC5 IC50” value turned out to be 0.034 nM.

B8: SEQ ID NO: 4 (peptide)
peptide: cyclo([Bip(4'-COOH)][4Pal][Phe(4-COOH)]G[Pro(cis-4-F)][Trp(βS-Me,4-F)][Aib]EW[Aib][Ala(pyrimidin-5-yl)]Q[Dab]G[dPro(4R-Bzl(4-F))])
SMILES: C[C@@H](c1c[nH]c2cccc(F)c12)[C@@H]1NC(=O)[C@@H]2C[C@H](F)CN2C(=O)CNC(=O)[C@H](Cc2ccc(C(=O)O)cc2)NC(=O)[C@H](Cc2ccncc2)NC(=O)[C@H](Cc2ccc(-c3ccc(C(=O)O)cc3)cc2)NC(=O)[C@H]2C[C@@H](Cc3ccc(F)cc3)CN2C(=O)CNC(=O)[C@H](CCN)NC(=O)[C@H](CCC(N)=O)NC(=O)[C@H](Cc2cncnc2)NC(=O)C(C)(C)NC(=O)[C@H](Cc2c[nH]c3ccccc23)NC(=O)[C@H](CCC(=O)O)NC(=O)C(C)(C)NC1=O
For the molecule B8, the “MRC5 IC50” value was 0.031 nM.

B9: SEQ ID NO: 47 (peptide)
peptide: cyclo([Bip(4'-COOH)][4Pal][Phe(4-COOH)]G[Pro(cis-4-F)][Trp(βS-Me,4-F)][Aib]EW[Aib][4Pal]Q[Dap]G[dPro(4R-(4-pyridylmethyl))])
SMILES: C[C@@H](c1c[nH]c2cccc(F)c12)[C@@H]1NC(=O)[C@@H]2C[C@H](F)CN2C(=O)CNC(=O)[C@H](Cc2ccc(C(=O)O)cc2)NC(=O)[C@H](Cc2ccncc2)NC(=O)[C@H](Cc2ccc(-c3ccc(C(=O)O)cc3)cc2)NC(=O)[C@H]2C[C@@H](Cc3ccncc3)CN2C(=O)CNC(=O)[C@H](CN)NC(=O)[C@H](CCC(N)=O)NC(=O)[C@H](Cc2ccncc2)NC(=O)C(C)(C)NC(=O)[C@H](Cc2c[nH]c3ccccc23)NC(=O)[C@H](CCC(=O)O)NC(=O)C(C)(C)NC1=O
For the molecule B9, the “MRC5 IC50” value came out at 0.029 nM.

B10: SEQ ID NO: 43 (peptide)
peptide: cyclo([Bip(4'-COOH)][Ala(1-bicyclo(1.1.1)pentyl)][Phe(4-COOH)]G[Pro(cis-4-F)][Trp(βS-Me,4-F)][Aib]EW[Aib][Ala(pyrimidin-5-yl)]Q[Dab]G[dPro(4R-(4-pyridylmethyl))])
SMILES: C[C@@H](c1c[nH]c2cccc(F)c12)[C@@H]1NC(=O)[C@@H]2C[C@H](F)CN2C(=O)CNC(=O)[C@H](Cc2ccc(C(=O)O)cc2)NC(=O)[C@H](CC23CC(C2)C3)NC(=O)[C@H](Cc2ccc(-c3ccc(C(=O)O)cc3)cc2)NC(=O)[C@H]2C[C@@H](Cc3ccncc3)CN2C(=O)CNC(=O)[C@H](CCN)NC(=O)[C@H](CCC(N)=O)NC(=O)[C@H](Cc2cncnc2)NC(=O)C(C)(C)NC(=O)[C@H](Cc2c[nH]c3ccccc23)NC(=O)[C@H](CCC(=O)O)NC(=O)C(C)(C)NC1=O
Take B10: the “MRC5 IC50” value stood at 0.026 nM.
